From US20230295310A1 (ABCELLERA BIOLOGICS, published 2023)
Residue numbers refer to the chain shown, from its start.

B1: mAb 78 (antibody, V domains shown)
VH: EVQLVESGGGLVQPGGSLRLSCAASGFTFSSYWMSWVRQAPGKGLEWVANIKQDGSEKYYVDSVKGRFTISRDNAKNSLYLQMNSLRAEDTAVYYCARDNSPSFYWYFDLWGRGTLVTVSS
VL: DIQMTQSPSTLSASVGDRVTITCRASQSLSRWLAWYQQKPGKAPKLLIYKASSLESGVPSRFSGSGSGTEFTLTISSLQPDDFATYYCQQYYTYSRTFGQGTKVEIK
notes: VH and VL only
B2: mAb 90 (antibody, V domains shown)
VH: EVQLVESGGGLVQPGGSLKLSCAASGFTFSGSAMHWVRQASGKGLEWVGRIRTKPNSYATSYAASVKDRFTISRDDSKNTAYLQMNSLKTEDTAVYYCIRGELEPWGQGTLVTVSS
VL: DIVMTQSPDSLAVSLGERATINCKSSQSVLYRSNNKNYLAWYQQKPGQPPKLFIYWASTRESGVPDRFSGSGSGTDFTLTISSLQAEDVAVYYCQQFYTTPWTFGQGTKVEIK
notes: VH and VL only
B3: mAb 106 (antibody, V domains shown)
VH: QVQLVESGGGVVQPGRSLRLSCAASGFTFRSYGMHWVRQAPGKGLEWVAIIWYNGNKKDYVDSVKGRFTISRDNSKNTLYLQMNSLRAEDTALYYCARGPGYNWFDPWGQGTLVTVSS
VL: DIQMTQSPPSLSASVGDRVTITCRASQRISSYLNWYQQKPGKAPKLLIYAASSLQSGVPSRFSGSGSGTDFTLTISSLQPEDFATYYCQQSDSFPLTFGGGTKVEII
notes: VH and VL only
B4: mAb 110 (antibody, V domains shown)
VH: B3 VH with T78M
VL: B3 VL with K39R, S91T
notes: VH and VL only
B5: mAb 99 (antibody, V domains shown)
VH: QGQLVESGGGVVQPGRSLRLSCAASGFTFRGFGMHWVRQAPGKGLEWVAIIYYDGKNKYYADSVKGRFTISRDNSKNTLYLQMNSLRAEDTAVYYCAKGGGYNWFDPWGQGTLVTVSS
VL: DIQMTQSPSSLSASVGDRVTITCRASQSISTYLNWYQQKPGKAPKLLIYSASSLQSGVPSRFSGSGSGTDFTLTISNLQPEDFAIYYCQRSYSPPFTFGPGTKLDIR
notes: VH and VL only
B6: mAb 95 (antibody, V domains shown)
VH: B5 VH with G2A, Q3H, A23S, R30S, F32Y, I50L, Y53F, K56R, K98R
VL: DIQMTQSPSSLSASVGDRVTITCRASQSINNYLSWYQQKPGKAPKLLIYLASNLQSGVPSRFSGSGSGTDFTLTISSLQPEDFATYYCQLSYRSPFTFGPGTKVDVK
notes: VH and VL only
B7: mAb 96 (antibody, V domains shown)
VH: B5 VH with G2A, Q3H, A23S, R30S, F32Y, A49S, I50L, Y53F, K56R, K98R
VL: B6 VL with S65N
notes: VH and VL only
B8: mAb 94 (antibody, V domains shown)
VH: B5 VH with G2V, Q3H, A23S, R30S, F32Y, I50L, Y53F, K56R, K98R
VL: B6 VL with N30S, S34N, N53S, S76N, T85S, R93S, K107N
notes: VH and VL only
B9: mAb 93 (antibody, V domains shown)
VH: B5 VH with G2V, F32Y, D54N, K56N, K98R
VL: B5 VL with T31N, K39E, S50T, D70A, N77S, Y92S, R107K
notes: VH and VL only
B10: mAb 97 (antibody, V domains shown)
VH: B5 VH with F32Y, S85N, A88V, K98R
VL: B5 VL with V15I, T31N
notes: VH and VL only
B11: mAb 98 (antibody, V domains shown)
VH: B5 VH with G2V, Q3H, G10D, A23S, R30S, F32Y, I50L, Y53F, K56R, K98R
VL: B6 VL with S34N, N53S, F83L, R93S
notes: VH and VL only
B12: mAb 101 (antibody, V domains shown)
VH: B5 VH with T78M
VL: B5 VL
notes: VH and VL only
B13: mAb 100 (antibody, V domains shown)
VH: B5 VH with G2V, A23V, F32Y, A88V, V93L, K98R
VL: B5 VL with S50T, D70V, N77S, K103R, R107K
notes: VH and VL only

Molecular target: T1, human CD3e/d (human, UniProt P07766 23-126; P04234 22-105)
T1 construct: Bought soluble protein; also called hCD3e/d; human CD3/ed (Sino CT038-H2508H)
T1 sequence (P07766 23-126, chain 1 of 2): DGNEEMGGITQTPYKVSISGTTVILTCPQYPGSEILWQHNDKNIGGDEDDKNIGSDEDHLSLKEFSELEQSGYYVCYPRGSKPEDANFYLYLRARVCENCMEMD
T1 sequence (P04234 22-105, chain 2 of 2): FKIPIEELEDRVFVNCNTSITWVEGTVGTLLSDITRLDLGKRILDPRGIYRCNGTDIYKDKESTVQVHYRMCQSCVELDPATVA
Experiment: SPR (Carterra LSA), mAb on chip
Procedure, shortened: (§1)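 Purified mAbs amine-coupled (EDC/S-NHS) at 10 μg/mL in 10 mM NaOAc pH 4.25 onto an HC-30M chip, with benchmark and negative-control mAbs; analyte flowed over the array. Double-referenced sensorgrams fitted globally to a 1:1 Langmuir model for ka, kd and KD.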

Binder | Kd [nM]
B1 | 283
B2 | 33.3
B3 | 17.1
B4 | 18.4
B5 | 8.92
B6 | 1.79
B7 | 7.73
B8 | 1.57
B9 | 47.8
B10 | 16.5
B11 | 9.71
B12 | 9.06
B13 | 20.5

Molecular target: T2, human CD3e/g (human, UniProt P07766 23-126; P09693 23-116)
T2 construct: Bought soluble protein; also called hCD3e/g; human CD3e/g (Acro CDD-C52W4)
T2 sequence (P07766 23-126, chain 1 of 2): as the sequence (P07766 23-126, chain 1 of 2) above
T2 sequence (P09693 23-116, chain 2 of 2): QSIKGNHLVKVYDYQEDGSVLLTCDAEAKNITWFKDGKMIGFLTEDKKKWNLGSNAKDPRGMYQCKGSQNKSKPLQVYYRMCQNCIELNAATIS
Experiment: SPR (Carterra LSA), mAb on chip
Procedure, shortened: as §1

Binder | Kd [nM]
B1 | 1260
B2 | 41
B3 | 10.6
B4 | 8.97
B5 | 11.6
B6 | 9.22
B7 | 11.9
B8 | 7.8
B9 | 35.8
B10 | 17.8
B11 | 11.2
B12 | 10.9
B13 | 25.5
